According to patent publication US20250154240A1, “ANTI-HUMAN CXCL1 ANTIBODY” (CHIOME BIOSCIENCE INC., priority 2022, published 2025):
Positions count from the first letter of the chain named.

Experiments:
[1] = target: T1, MsCXCL1 (Mus musculus, UniProt P12850); experiment: FACS, inhibition of binding of APC-labeled MsCXCL1 to HEK293 cells forced to express HuCXCR2; format: cell-based; set-up: purchased PROTEINTECH; host or cells: CXCR2: transfected HEK293 cells; conditions: APC-labeled ligand 10 μg/mL; HEK293 cells expressing HuCXCR2
T1 sequence (P12850 25-96): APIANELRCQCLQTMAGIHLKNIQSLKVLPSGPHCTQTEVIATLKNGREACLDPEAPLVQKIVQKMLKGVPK
Procedure: Chemokines are stabilized by directly binding to GAG on the cell surface and thereby allow efficient signal transduction to their receptors. […] Then, to evaluate whether Hu5A-5E11 inhibits the binding of CXCLs to cells, the binding of fluorescently labeled CXCLs to cells was measured as fluorescence intensity by flow cytometry in FACS. For this purpose, HEK293 cells forced to express HuCXCR2 were used. For use as HuCXCL1, 2, 3 and 5 and MsCXCL1, the proteins in above were labeled with APC.
The cultured cells were detached and washed with PBS, and then suspended at 5.0× 10^5 cells/mL in PBS containing 1% BSA (hereinafter referred to as the FACS buffer). Each of the APC-labeled ligands and Hu5A-5E11 were mixed at final concentrations of 10 μg/mL and 16.7 μg/mL, respectively, and reacted at room temperature for 30 minutes, and then added to the cell suspension and reacted on ice for 30 minutes. After washing with the FACS buffer, the cells were suspended again in PBS containing 1% 7-AAD, 0.5% BSA and 2 mM EDTA, followed by the above flow cytometry to measure fluorescence intensity.

[2] = target: T1, MsCXCL1; experiment: ELISA, inhibition of binding of MsCXCL1 to GAG (heparin, heparan sulfate); format: biochemical; set-up: purchased PROTEINTECH; conditions: antibody 0 to 10 μg/mL; biotin-labeled heparin or heparan sulfate 10 μg/mL
Procedure: (§1) Thus, the effect of Hu5A-5E11 on the binding of CXCLs to GAG was evaluated by ELISA assay using plates on which the antigen (HuCXCL1 protein) used for immunization or HuCXCL2, 3 and 5 and MsCXCL1 and 2 proteins had been directly immobilized. CXCLs other than HuCXCL1 were purchased from PROTEINTECH and used. Biotin-labeled heparan sulfate and heparin were purchased from PG Research and used.
(§2) To 96-well plates, phosphate-buffered saline (PBS) containing 3 μg/mL of HuCXCL1, 2, 3 or 5 or MsCXCL1 or 10 μg/mL of MsCXCL2 was added in a volume of 50 μL per well, and the plates were allowed to stand overnight at 4° C. After removal of the antigen solutions, PBS containing 0.05% Tween-20 (hereinafter referred to as the blocking solution) was added to each well for blocking reaction, and the plates were allowed to stand at room temperature for 30 minutes. […] TMB (Dako) was added as a chromogenic substrate solution to cause color development, and 1 N sulfuric acid was added to stop the reaction, followed by measurement of absorbance at 450 nm. The binding rate of CXCLs to GAG was calculated as a ratio relative to the absorbance measured in the absence of the antibody, which was set to 100%.

[3] = target: T2, HuCXCL2 (Homo sapiens, UniProt P19875); experiment: ELISA, inhibition of binding of HuCXCL2 to GAG (heparin, heparan sulfate); format: biochemical; conditions: antibody 0 to 10 μg/mL; biotin-labeled heparin or heparan sulfate 10 μg/mL
T2 construct: purchased PROTEINTECH
T2 sequence (P19875 35-107): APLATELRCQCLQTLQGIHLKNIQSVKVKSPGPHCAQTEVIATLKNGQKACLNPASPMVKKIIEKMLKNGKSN
Procedure: as §1, §2

[4] = target: T3, HuCXCL1 (Homo sapiens, UniProt P09341); experiment: ELISA, inhibition of binding of HuCXCL1 to GAG (heparin, heparan sulfate); format: biochemical; conditions: antibody 0 to 10 μg/mL; biotin-labeled heparin or heparan sulfate 10 μg/mL
T3 construct: made in house; host or cells: Expi293 expression system (transient), protein from the culture supernatant
T3 sequence (P09341 35-107): T2 sequence (P19875 35-107) with P2S, L3V, L20P, K27N, Q48R, M58I, K68N, N69S, G70D
Procedure: as §1, §2

[5] = tested on: CXCR2-expressing cells; experiment: In vivo CXCR2-expressing cell migration inhibitory activity, treatment model with OCUM-12 orthotopic transplantation; set-up: species or system mouse
Excerpt: The stomachs after measurement were excised and fixed overnight at room temperature with a 10% neutral buffered formalin solution (Wako Pure Chemical Industries, Ltd., Japan), followed by replacement with PBS. Then, paraffin embedding and section preparation were outsourced to Applied Medical Research Laboratory, Japan. The prepared gastric tumor sections were immunohistologically stained with an anti-CXCR2 antibody to evaluate in vivo CXCR2 cell migration inhibitory activity. The sections were deparaffinized and rehydrated, and then treated to inactivate endogenous peroxidase. After antigen activation treatment, the sections were blocked with PBS containing 2% skimmed milk and 0.1% Tween-20 (hereinafter referred to as the blocking solution), and reacted overnight at 4° C. with an anti-CXCR2 antibody (Biorbyt) as a primary antibody, which had been diluted 1667-fold with the blocking solution. After washing with PBS containing 0.1% Tween-20, the sections were reacted at room temperature for 1 hour with an HRP-labeled goat anti-rabbit IgG antibody (Abcam) as a secondary antibody. […]
The dose-response relationship between antibody dose and in vivo antitumor activity or CXCR2 migration inhibitory activity was evaluated in a xenograft treatment model with OCUM-12 orthotopic transplantation. […] After 4 weeks had passed from the transplantation, the mice were sacrificed and evaluated.

B1: Hu5A-5E11: humanized antibody VH1/VL1; VH SEQ ID NO: 76, VL SEQ ID NO: 78 (antibody, V domains shown)
VH: QVQLVQSGAEVKKPGSSVKVSCKASGYAFSDYWMNWVRQAPGQGLEWIGQIYPGSGDTNYNAKFKGKGTITADKSTSTAYMELSSLRSEDTAVYYCARERDYDVAMDYWGQGTTVTVSS
VL: DIQMTQSPSSLSASVGDRVTITCKASQDINKYIAWFQQKPGKAPKLVIHYTSILQPGVPSRFSGSGSGTDYTFTISSLQPEDIATYYCLQYDNLPWTFGGGTKVEIK
Inhibitory activity against the binding of MsCXCL1 to cells (fluorescence intensity) [1]: reduce the fluorescence intensity of the cells in an antibody concentration-dependent manner
Inhibitory activity against the binding of MsCXCL1 to GAG [2]: inhibit the binding of HuCXCL1, 2, 3 and 5 and MsCXCL1 to GAG in an antibody concentration-dependent manner
Inhibitory activity against the binding of HuCXCL2 to GAG [3]: inhibit the binding of HuCXCL1, 2, 3 and 5 and MsCXCL1 to GAG in an antibody concentration-dependent manner
Inhibitory activity against the binding of HuCXCL1 to GAG [4]: inhibit the binding of HuCXCL1, 2, 3 and 5 and MsCXCL1 to GAG in an antibody concentration-dependent manner
Dose at which the migration suppressive effect tended to reach a plateau [5]: ≥ 60 μg/head
